In publication PMC9170038:

Columns and labels:
[1] = tested on: Tryptophan aptamer, RNA-MaP condition construct (RNA, aptamer) GGAAAGGCGAGCGGCCGCCACUGUUCGCAGGACCGGGCUCGCCAAAGAAACAACAACAACAAC; test: DMS chemical mapping; details: 80 mM KCl, 4 mM MgCl2; 100 mM Tris-HCl, pH 7.5, 37 °C
[2] = tested on: BH_E029 (RNA, aptamer) GGGAGAGUGGCAGCUUACAACGUAACGAUGCGGCCGCCACUGAUCCGACUGGUUAACAGAAAGUCCUGACCAGGUAACGAAUGGUCAGGACCGGGCAUUGUUACGAAGUGGGCUGUUGCUUUUCC; test: light-up fluorescence kinetics (malachite green); details: 5 mM MgCl2, 1x PBS, pH 6.1, 2.4 mM Trp with malachite green present
[3] = tested on: Tryptophan aptamer, Light-up construct (RNA, aptamer) GGGAACGUCUCCGAGUAGGAGACGAAGGGAGAGUGGCAGCUUACAAACUACAGUUGCGGCCGCCACUGCGAAGGACGGGUCCCUCGAAAGAGGUUGAGUAGAGUGUGAGCGCAGGACCGGGCAACAGUAGUAAGUGGGCUGUUGCUUUUCCAAGCUUAUCGAGUAGAUAAGCAAAAAGAAACAACAACAACAAC; test: DMS chemical mapping; details: 5 mM MgCl2, 1x PBS, pH 6.1, 24 °C
[4] = target: T1, MS2 coat protein, dlFG mutant (Escherichia phage MS2, UniProt P03612, del68-81insG); test: 4 mM Mg2+; no ligand; RNA-MaP array; 100 mM Tris-HCl pH 7.5, 80 mM KCl, 4 mM MgCl2, 0.1 mg/mL BSA, 1 mM DTT, 0.01 mg/mL yeast tRNA, 0.01% Tween-20; protein 1.5 nM to 3 uM; 37 C (Table S3); details: chain copies: 2; label: tethered by stalled RNA polymerase
[5] = target: T1, MS2 coat protein, dlFG mutant; test: 4 mM Mg2+; theophylline 2 mM; RNA-MaP array; 100 mM Tris-HCl pH 7.5, 80 mM KCl, 4 mM MgCl2, 0.1 mg/mL BSA, 1 mM DTT, 0.01 mg/mL yeast tRNA, 0.01% Tween-20; protein 1.5 nM to 3 uM; 37 C (Table S3); details: chain copies: 2; label: tethered by stalled RNA polymerase
[6] = target: T1, MS2 coat protein, dlFG mutant; test: 4 mM Mg2+; FMN 200 uM; RNA-MaP array; 100 mM Tris-HCl pH 7.5, 80 mM KCl, 4 mM MgCl2, 0.1 mg/mL BSA, 1 mM DTT, 0.01 mg/mL yeast tRNA, 0.01% Tween-20; protein 1.5 nM to 3 uM; 37 C (Table S3); details: chain copies: 2; label: tethered by stalled RNA polymerase
[7] = target: T1, MS2 coat protein, dlFG mutant; test: 4 mM Mg2+; L-tryptophan 2.4 mM; RNA-MaP array; 100 mM Tris-HCl pH 7.5, 80 mM KCl, 4 mM MgCl2, 0.1 mg/mL BSA, 1 mM DTT, 0.01 mg/mL yeast tRNA, 0.01% Tween-20; protein 1.5 nM to 3 uM; 37 C (Table S3); details: chain copies: 2; label: tethered by stalled RNA polymerase

Molecule | Kd [4] [nM] | also measured
N[C@@H](Cc1c[nH]c2ccccc12)C(=O)O | – | Kd [1]: 12.09 ± 10.50/-5.19 μM; binding [2]: yes; Kd [3]: 11.59 ± 9.49/-5.00 μM
Eterna 1699 (Same State - Theophylline B) (ssRNA) RNA: UCGCAUUAACCGGAUACCAGCUUAGUGGGAUCUUCAAUCCGACAGAAAGUGAUGUUUUCUAGCCCUUGGCAGCCGAGAUUAUCAC | > 3000 | –
Eterna 7646211 (Same State - Theophylline A) (ssRNA) RNA: CAUACUUUAGUAUGUAAUGUGGACAGUGAUACCAGAUACGAAAGUAUCCCUUGGCAGCACAACAUGAGGAUCACCCAUGUAUUUU | – | Kd [5]: 13.4 nM
Eterna 6103763 (Same State NG 3) (ssRNA) RNA: CAUUGACGACAAUUACAUGAGGAUCACCCAUGUUUUGGGAUGCAGGAUAUGUGGUAUAUUAAUUAACAGAAGGGCAAUAAUUUU | – | Kd [6]: 35.5 nM
Eterna 1729 (Same State - Tryptophan A) (ssRNA) RNA: GGAGUCCCGUUAGAUUGUGUAGAUACAAGACGAGGACCGGUACGGCCGCCACUCGCCAUCGUCCAGUGAUGUUGGGCGUCACGGG | > 3000 | –
Eterna 7614506 (Exclusion - Tryptophan A) (ssRNA) RNA: UAUAUAUAUCACGAACUGUGGUGUAUGUCUCGAGGACCGGUACGGCCGCCACUCGCGCGGCCUCACAUGAGGAUCACCCAUGUUG | – | Kd [7]: 46 nM
Eterna 7742068 (Same State - Tryptophan B) (ssRNA) RNA: AGUACAAUGGCGGCCGCCACUCAACGCAGAUCAAAGAUCUGCGUUCACUCAGUGAUGUUGAGUGAGAGGACCGGGCCUUUGUACA | > 3000 | –
Eterna 7727518 (Exclusion - Tryptophan B) (ssRNA) RNA: GUUUUGGGAUCGGCCGCCACUACAUGAGGAUCACCCAUGUGGACAAAUAGGGUUUUUAAGCUCGGUAGGACCGGGAUUCGAACAU | – | Kd [7]: 67.5 nM
Eterna 7684838 (Same State - Theophylline A) (ssRNA) RNA: AAAUUUAAUAUAUUUAAAUAAAUAUGUGAUACCAGACAUUUAUAAGUCCCUUGGCAGCACAAUGCAGUGAUGUUGCUUAUAAUAA | > 3000 | –
Eterna 1179 (Exclusion - Theophylline B) (ssRNA) RNA: CACCCAGUCCUCGAUACCAGACUGGCACGUCAAAAGGUCCAGUGAUGUUGAGCCUAACAAGUCCCUUGGCAGCGACCAGUGUAUU | > 3000 | –
Eterna 7739799 (Exclusion - Arginine A) (ssRNA) RNA: CAGACCACAGAGUGAUGUUCUGUGUCCGAAGGAGCGCGCGAGAGCGCAGGUAGGUCGCGGAUACAGUUGACGUACCUUCAAGACA | > 3000 | –
Eterna 7686162 (Exclusion - FMN A) (ssRNA) RNA: UACAUAUAAUUAUUUCUACAUUUAUUUAGUCAGGAUAUCGAUUAAACGAGAAGGGACAAUAUCAAGUGAUGUUUGAUAAUUCAAA | > 3000 | –
Eterna 1186 (Exclusion - Theophylline B) (ssRNA) RNA: GAUAGUUAGAGAGAUACCAGCGAUACCUAGAUGGAAAGUGAUGUUCGCCAUCAAUUGCACCGCCCUUGGCAGCUCUCUCUUUGCU | > 3000 | –
Eterna 7700218 (Same State - Theophylline A) (ssRNA) RNA: UGGUUAAGCAGUGAUGUUGCAAGUGAUGAUACCAGUUAAGAAGAGAACCCUUGGCAGCAUAAAGUGCGCUCUGAUGAGUGUGCUU | > 3000 | –
